The Human Domainome abundance scans (Beltran et al. 2025)

B1: POU domain, class 2, transcription factor 2, residues 200 to 269; numbered along this chain, P09086 (parent)
chain: LEELEQFARTFKQRRIKLGFTQGDVGLAMGKLYGNDFSQTTISRFEALNLSFKNMCKLKPLLEKWLNDAE

Variants of: B1
Test: abundance fitness (aPCA) (normalised: wild type 0, dead -1); higher = more abundant; growth selection in yeast, the domain comes from the species named
Settings: Homo sapiens

Abundance fitness: each site, then its substitutions
R44: M -0.006, A 0.04, Q 0.125, D -0.06, E 0.088, I -0.926, G 0.008, S 0.065, F -0.22, C -0.057, N -0.482, Y -0.033, V -0.523, L -0.025, K 0.033, H -0.168, P -0.936, W -0.251
S38: V -0.081, C -0.023, G 0.025, M -0.085, K -0.055, W -0.157, I -0.107, A -0.014, Q -0.054, N 0.044, Y -0.234, E -0.015, R -0.037, P -0.065, T -0.004, D 0.241
A47: H -0.144, G -0.002, D 0.158, F -0.173, E 0.082
F45: H -1.04, D -0.916, R -0.965, W -0.205, G -1.05, V -0.371, C -0.752, T -0.989, Q -0.977, Y -0.158, K -0.906, M -0.109, A -0.78, E -1.09, I -0.546
I42: K -0.979, T -0.552, E -0.758, R -1.11, P -0.857, M -0.122, F -0.375, A -0.609, W -0.818, D -0.857, V -0.033, L -0.073, Q -0.559, S -0.685, Y -0.511, C -0.375, G -1.02, H -1.01
Q39: S 0.005, K -0.029, C -0.077, T 0.042, R -0.019, A -0.032, L -0.046, N -0.306, P 0.035, F -0.022, E 0.01, H -0.11, M -0.024, G -0.027, I -0.017, V -0.002, D 0.017
T40: S 0.032, M -0.058, R -0.021, H -0.161, P -0.072, D 0.02, F -0.041, E -0.002, K 0.232, C -0.038, Q 0.009, I -0.285, N -0.107, V 0.068, Y 0.031, G -0.036, L -0.078
T41: R -0.179, Q -0.061, A -0.048, K -0.09, C 0.094, M 0.04, W -0.014, D 0.029, L -0.041, E -0.029, V 0.024, F -0.114, S -0.059, I -0.108, N -0.062, H 0.023, Y -0.078, G -0.193
F37: Y -0.048, V -0.065, T -0.175, R -0.39, M -0.024, L -0.052, W -0.012, S -0.24, Q -0.061
E46: N -0.973, F -0.996, R -0.993, A -0.765, G -0.942, P -0.885, D -0.942, L -0.904, T -0.87, V -0.79, S -1.05, Q -1.08, W -1.02, C -1.06, K -0.431, Y -0.994, I -0.956, H -0.944
S43: W -0.047, H -0.034, F -0.227, N -0.046, E -0.018, K 0.062, C -0.149, G 0, P -0.002, A 0.005, Q 0.095, V -0.098, D -0.049, T -0.05, L -0.07, I -0.024
